Measured values from a protein production outcome set (Wang et al. 2014).

Experiment: label from the status in PepcDB records

Sequence	protein production
MQKDKILKKIIVLCFFIFYNFNFFGLAVPSLSGPVVDKAGILSRSEFEKIENFLLDLDQKSKVQIAVLIIPSLEGESIEDYSMQVAEEWKLGDKEKDSGALLVVAVKDKKLRIEVGYGLEENLTDSRSGQIIRNFIAPQFRSGNYGEGIYDGIKAMAAYASEDESLLKEIAVSDEDDEGGFPQALLFFLFVYLMISKFSPGGLFWIFYLLSRSGRAGRSFNGRSSSRGSFFGGSIGRSSGRGFSGGGFSGGGGSFGGGGASGGW	failed
MQKKTVGLLLASAGPFLWGSSGTVAQHLFDTTTISPLWLVAVRMLVSGGLLILYGFSRRLPVMVVFHDWRATVRLIVFSLFGMAGVQLTYFMAISTGNAAMAAILQFLSPVMIIIFITATTWQLPGKVDVISVVSAIAGTVLIVTEGHTDSLALPVIAIIWGLLAAVGATIYTLMPTKLLKVYGATPIVGWSMLIGGGLVLVGTGAWHHSPQLTWVAWGQVGFVVIFGTMLAYLFFLQSLEYILPTTASVLGAIEPLAATILSVLFLHVHFNWVGLIGAIMIVGVTILQFAATRANQFVSK	failed
MQKQAELYRGKAKTVYSTENPDLLVLEFRNDTSAGDGARIEQFDRKGMVNNKFNYFIMSKLAEAGIPTQMERLLSDTECLVKKLDMVPVECVVRNRAAGSLVKRLGIEEGIELNPPLFDLFLKNDAMHDPMVNESYCETFGWVSKENLARMKELTYKANDVLKKLFDDAGLILVDFKLEFGLYKGEVVLGDEFSPDGSRLWDKETLEKMDKDRFRQSLGGLIEAYEAVARRLGVQLD	failed
MQKRAYLLIAVSGSLWGTIGIFVRELYGLGFSTLQIVTMRVFSAAVIMLLYLLFTKPELLKIRFRDSLYFVGTGILSIVFFNLCYFITIRETSIAIAVTLLYTAPAFVAILSRIIFRESLDAKKLFSLGLTLTGCAFVTGYLPELGNSPSITLPWLLTGLGAGFGYALYSIFGKVALKKYDTVTITAYTFFFASLALLPLVSFETSGEAFSTGSFWTYLIGLGFFPTVLAYLLYTKGLEEVESSRAAIVATVEPVVATFAGFFFFREIVSGWQLAGILFVLAGVVLIQERK	failed
MQKTAFIWDLDGTLLDSYEAILSGIEETFAQFSIPYDKEKVREFIFKYSVQDLLVRVAEDRNLDVEVLNQVRAQSLAEKNAQVVLMPGAREVLAWADESGIQQFIYTHKGNNAFTILKDLGVESYFTEILTSQSGFVRKPSPEAATYLLDKYQLNSDNTYYIGDRTLDVEFAQNSGIQSINFLESTYEGNHRIQALADISRIFETK	not failed
MQKTDGLADRIWVVLVQPKYQGNIGAVARSMKNSGLSKLIIVGNRPDDEAFARSMGGRQILENAEIVDSLEEIVHRFTIVAGTSSTASSNLKRFRRLPVDPETFWKQMESQTGKVALVFGREDDGLRNEELDLCNYFIYIPGNPDYPVYNLSHAVAIVLYVMYRSYVPSDMIQHESIKPEHEVLLMSNILDI	not failed
MQKVTLGLLVFLAGFPVLDANDLEDKNSPFYYDWHSLQVGGLICAGVLCAMGIIIVMSAKCKCKFGQKSGHHPGETPPLITPGSAQS	failed
MQLEVILPLVAYLVVVFGISVYAMRKRSTGTFLNEYFLGSRSMGGIVLAMTLTATYISASSFIGGPGAAYKYGLGWVLLAMIQLPAVWLSLGILGKKFAILARRYNAVTLNDMLFARYQSRLLVWLASLSLLVAFVGAMTVQFIGGARLLETAAGIPYETGLLIFGISIALYTAFGGFRASVLNDTMQGLVMLIGTVVLLIGVVHAAGGLSNAVQTLQTIDPQLVTPQGADDILSPAFMTSFWVLVCFGVIGLPHTAVRCISYKDSKAVHRGIIIGTIVVAILMFGMHLAGALGRAVIPDLTVPDLVIPTLMVKVLPPFAAGIFLAAPMAAIMSTINAQLLQSSATIIKDLYLNIRPDQMQNETRLKRMSAVITLVLGALLLLAAWKPPEMIIWLNLLAFGGLEAVFLWPLVLGLYWERANAKGALSAMIVGGVLYAVLATLNIQYLGFHPIVPSLLLSLLAFLVGNRFGTSVPQATVLTTDK	failed
MQLIRGFHNLANYDALKKGCVLTIGNFDGVHIGHQNILARLCDQSLAIGLPSVVMLFEPQPREFFAKNSQNQTASALSNAVPARLMRLRDKLKYLAEMGVDFVLCVNFNQKFAKYSAEDFITELLVKKLKVRYLSVGDDFRFGIERRGNFEMLRNAGLTHRFAVEESHTHRFDTLRISSSLIRQALQQNDLALVENLLGKPYSIRGRVAHGNKLGRTIGFPTANIMLNRLVTPIQGVFIVEVQTIYGRFNGIANVGNRPTINGTKPLLEVHIFDFNNAIYHQIIEVIFIKKIRDELKFASFTLLKEQIEKDCQQAVEFFNQLPKTK	failed
MQLNESMSTQDNSLAENYYQQAIEQWKSRDQKQALQFFKKAVRAKPSNAHYWYALAGTYHIQNKFRAARFCFEKSLNLNPNQDEIKIFLCEICYLLTDYKSVAYYAGQVDLSKIQNLEILYKVACSFKELGQLEKTGQVCSQILSLDDNFWQAKLLAAEILRIKGYSGEAKVLVLELIDQQPTVGKFWNELGINEVDLAHEDEALSAFSKAEQYVSGPEKLIIGSNYLFEFSSGLRTAKDILDAHLLWNKKYCKDQGGSFQSSKFNYLKSNDKKNIAYLSGDFKTHSVSYFIEGILENHSRDAFNIILLSNTQEDEKTKKFKELADIWIDLKLTNFETAAQIVKRLNIDILIELSGHTNGNKLNLLSSRLAPVQATYLGYFATTGLSTIDYWITDNVVHPAHTVELATETIFRLPRCYLAYTPPPQSPSIAESPVIKNGYITFGSFVASRKISDYSILLWSSILSEIPNSQLLIKNRSCVSPLYRSELIEKFSLCGISSQRINFNEAKLNLEDHLALYNKVDIALDTYPASGCTTTVEALWMGVPVLTRLGELMVSRNSASLLHALNLQNWIAETDEEYIDKGIKFTQSIEQLALLRQGMRERFMQSELYDSRGLTLHLEDFYLKALQEKLSANKEVRF	failed
MQLSWKDIPTVAPANDLLDIVLNRTQRKTPTVIRPGFKITRIRAFYMRKVKYTGEGFVEKFEDILKGFPNINDVHPFHRDLMDTLYEKNHYKISLAAISRAKSLVEQVARDYVRLLKFGQSLFQCKQLKRAALGRMATIVKKLRDPLAYLEQVRQHIGRLPSIDPNTRTLLICGYPNVGKSSFLRCITKSDVDVQPYAFTTKSLYVGHFDYKYLRFQAIDTPGILDRPTEEMNNIEMQSIYAIAHLRSCVLYFMDLSEQCGFTIEAQVKLFHSIKPLFANKSVMVVINKTDIIRPEDLDEERAQLLESVKEVPGVEIMTSSCQLEENVMEVRNKACEKLLASRIENKLKSQSRINNVLNKIHVAQPQARDDVKRTPFIPESVKNLKKYDPEDPNRRKLARDIEAENGGAGVFNVNLKDKYLLEDDEWKNDIMPEILDGKNVYDFLDPEIAAKLQALEEEEEKLENEGFYNSDDEEEIYDGFEASEVDDIKEKAAWIRNRQKTMIAEARNRKSLKNKAIMPRSKLTKSFGKMEEHMSTLGHDMSALQDKQNRAARKNRYVERGSDVVFGDQDALTASTENGVKLRQTDRLLDGVADGSMRSKADRMAKMERRERNRHAKQGESDRHNAVSLSKHLFSGKRGVGKTDFR	failed
MQLTSQAFSYGRPIPKKYSCQGVGISPPLSFSDVPREAKSLVLIVEDPDVPPSVREDGLWIHWIVYNLSPVVSNLAEGAQIFAVQGLNTAGEIGYCPPCPPDAKHRYYFYAYALDVVLSDEEGVTKEQLLEAMDGHIIATAELMGTYEKD	not failed
MQNCATGMQMDWISLLKAQQADFLLRVKKPKTYDLSLLESQVKGCHSEIMAFWGEPFAKIQEVSRRQAEILAKNPPPIPPEYPEPPDWTIPFPIHFQQQAEDYFLREQIVDRLIVERLGKLLKKLPQDTVKNMVLDDEGNLRGESKFTYLLADNPKISVQVYVADGESFNGIKKDKIKWSVTQEDLKNHQVLIFLCLFYPSTGKLGYEKQAVVAGFLPTSHIAVTEPKLYFTPSHLLYAGGLSWYLESLTAKKEAKLDFLPVVIERTIPETIQTVPSEHPRKEIIGDWECWQTLRGHMRGINCLSFSSGCENGLPMLASGSRGETKLWDLNQGELIDTLSEYPWIVSGLVDEVNSLAFSADGQMLVSGGADSTIKIWHTGALDLIDILHKHNGIVRCAAFTPDGQMLATGGDDRRILFWDLMHRQVKAILSLDDTAAHSLVLSRDGQTLVTGSYRKIKVWQTSGSWFGKNLKDAQPLHTLMGHGHIVRSLAMSKDGQLLISGSWDQTIKIWHLATGRLIRTLKGHTDKVYAIALSPDEQIIASGSSDQTIKLWHLETGELLATFTGHTDIVTALTFTTSGEMLVSGSLDKTIKLWQRS	failed
MQNLSLQKALKKPEVKTLLQQLGDSLGKNFAIFDIGGHCLWGKAQDSQPKVDIYCHQVLMGTITGEFTEHSAEAIAAMLSYIVQTEYEKKQLAKDTLQKYEEVVFLSQFANAVATCTGLQELIEVIRAEIRQVISVDEIFLYLYDQSQDSLTPLLYKTEESLQNFKAIEKIVERVLKLNQVEVIDDIQNDQDYLNQPSKIRSLLCYSLTVQNSIIGVLGLAHYQVKHFDSSDLNLFSTLTGQVAAAIRTAQYYETIKNYSQTLEIRVKERTMELEFAKQQLEQVNQRLKHLAIYDELTQIPNRRYFTSYLEQEWRQCLRQKSPISLILCDVDYFKNYNDLYGHQMGDKCLQSVAKVIQNALKRPSDVLARYGGEEFIVILPYTDQSGAYTVGQRIHHCLAEAQISHADSPTSRYLTISLGIGTTVPLLHYHPSDLIKIADQALYAAKAAGRNQTKLKTLSFQCS	failed
MQNRWAETKFDSDIDEVVYGSRLIGSDPDLVLHGGGNTSVKTTERDHAGRIISVLRVKNSGSNLGTIDSRGFTGIRMDDALAAAKIDKMTDEAMVDYLKKSMVNPSEPSPSVETFLHAFLPYKFVMHSHADAILSITNTDLPSDQIAKILGNVVVLPYIPPGFTLAKEVMNCFKKGIDGIVLRKHGLLTFGDTGKEAYDRHINIVSRAENFIREKTDGK	not failed
MQNSFLPLNTRRFRQRAQVETPDTVYWDRLAKPELLKEHNTIDYLDFSPSDPDNFVVTCSVRVQIYNLVTMLVVKNLSRFQKTAYGATFRQDGRLLAAGDEEGHVKLFDTTSRNILRLFKGHTAPVHRTFFTADKLQLASFGDDKSVRLWDVANEKVVQTYEDTHTDYVRAGAMHPQAGHMFVSGGYDGKIKLYDTRAETAVQRTLDHGAPVESMLFLPNGSIFVSAGGSQVRVWDLISGCRLLTMMSQHHKTVTCLRLGSDGRRLLSGGLDRHVKIYDVSTYKTVHTLTYPNAVVSMAVADGDQAVVAGMVDGLVSIRRMMVDSKPSHLKKIRADRARKYFVSTKRTNNTQEVDHTIKDHVKGPGLKSYDVHLRQFNHKKALDDVMNAQKMQYQPELIVAVITDLLHRGSLGKALTGRHEAALVRFIDFICNHLGEVRFMRPLMMAASTVLDVFEQRLVAYSQKLMKALQRLSLAMQEEVRLTAELMRMKGAVDMLIGISMDNSEVAHKPTYVETKTPKMHPSVAAQNYVVLVE	failed
MQNTTHDNVILELTVRNHPGVMTHVCGLFARRAFNVEGILCLPIQDSDKSHIWLLVNDDQRLEQMISQIDKLEDVVKVQRNQSDPTMFNKIAVFFQ	failed
MQPELTKTPANFPLSPLGAVVILGDIPNPELLAIPLAPTPSTMFGPRGACLVAETGALWVSDTGHHRLLGWRKLPTTDSQPADWVIGQPDFYHEGQNAKGTPGRTTVSVPTGICVCGGGLAIADAWNHRVLIWHKIPEDSNVPADLVLGQRNFSENEPNRGKQSPDANTMHWPYGVAYHQGKLFVADTGNRRLLIWQQLPTENGQPADIVLGQPDMISRNENGGGSPTAGSMRWCHDIAFWDDNLVVTDAGNNRVMIWQGIPTENNAPCAVVLGQKSFDLVEMNQGVYFPSAGSLSMPYGVGATEDWLMVADTANSRLLGWRKRESILLLQGAIADGIIGQNSFQSKSENRHFGLPTRDSLNWCYGVKVCGSTAVISDSGNNRVLLWRFLLEHHHHHH	failed
MQPFYIKKGRGSVIYSSVRKDLPPFHLFQMGKYSVVEDFSCLNNAVGDIVIGDYCRIGLGNTVIGPIRIDNGVNISQNVVLIGLDHNYQDITQGIIEQGITTSPIHIGEHTIIGANVIVLPGITIGKHCFIGAGCVVTQNIPDYCVTVGNPARIIKRYNPQSQTWEKILEHHHHHH	failed
